Series [1] concerns the molecule itself. Briefly: band on SDS-PAGE of the pull-down eluate, identified by Western blot; band seen in the lanes where GST-Vt and PIP2 are present.
The target of series [2] is T1, metavinculin-ΔH1′ (lacking residues 963–983) (human, UniProt P18206 1-1134, lacking residues 963–983).
T1 construct: human metavinculin, full length (1-1,134) lacking residues 963-983 (α-helix H1′): 1-962 joined to 984-1,134; also called MV-ΔH1′; source: E. coli BL21-DE3, purified (as full-length metavinculin); not shown: His8, N-terminal, kept
T1 sequence (looked up): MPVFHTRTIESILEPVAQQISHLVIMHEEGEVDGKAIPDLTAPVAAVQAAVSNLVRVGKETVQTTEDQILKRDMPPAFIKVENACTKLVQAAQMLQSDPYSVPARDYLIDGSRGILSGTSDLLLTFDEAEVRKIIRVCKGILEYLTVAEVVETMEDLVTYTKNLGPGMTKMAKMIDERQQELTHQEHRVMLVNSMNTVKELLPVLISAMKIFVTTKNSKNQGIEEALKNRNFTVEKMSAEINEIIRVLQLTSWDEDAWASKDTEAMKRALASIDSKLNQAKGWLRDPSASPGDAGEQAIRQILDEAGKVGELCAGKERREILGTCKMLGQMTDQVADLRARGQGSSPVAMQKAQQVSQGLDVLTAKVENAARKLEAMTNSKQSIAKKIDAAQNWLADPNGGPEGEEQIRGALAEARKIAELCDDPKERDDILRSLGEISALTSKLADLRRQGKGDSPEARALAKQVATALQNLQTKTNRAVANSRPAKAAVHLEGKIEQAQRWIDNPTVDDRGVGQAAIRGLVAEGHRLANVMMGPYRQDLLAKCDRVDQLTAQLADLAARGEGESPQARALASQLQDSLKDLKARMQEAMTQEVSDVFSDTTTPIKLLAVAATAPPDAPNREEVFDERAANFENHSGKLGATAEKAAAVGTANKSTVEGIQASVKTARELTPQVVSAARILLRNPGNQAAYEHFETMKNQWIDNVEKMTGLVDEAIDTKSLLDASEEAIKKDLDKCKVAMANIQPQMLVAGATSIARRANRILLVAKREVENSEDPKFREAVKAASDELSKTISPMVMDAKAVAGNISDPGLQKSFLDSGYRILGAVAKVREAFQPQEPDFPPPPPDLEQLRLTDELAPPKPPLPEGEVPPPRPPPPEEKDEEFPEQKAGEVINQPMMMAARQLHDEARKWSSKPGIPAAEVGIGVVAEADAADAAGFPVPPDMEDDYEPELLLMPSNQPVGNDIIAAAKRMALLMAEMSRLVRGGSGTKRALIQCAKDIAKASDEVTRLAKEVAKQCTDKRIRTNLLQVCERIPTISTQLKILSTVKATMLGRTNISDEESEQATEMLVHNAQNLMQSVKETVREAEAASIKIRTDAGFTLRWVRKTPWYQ
Kind of series: pull-down; GST-Vt (0.5 µM) on GST-Sepharose beads, with or without pre-incubation with 5 µM PIP2; 15 µM His8-tagged metavinculin or deletion mutant pre-activated with talin-VBS3, 1 hr 37°C; 20 mM Tris-HCl pH 8, 150 mM NaCl; eluted with glutathione, SDS-PAGE, Western blot. Particulars: both partners purified. (In general: A western blot detects proteins with antibodies after separation by electrophoresis.)

B1: GST tagged vinculin tail domain (GST-Vt; residues 879–1,066) (domain or fragment, human, UniProt P18206-2 879-1066, looked up)
chain: EEKDEEFPEQKAGEVINQPMMMAARQLHDEARKWSSKGNDIIAAAKRMALLMAEMSRLVRGGSGTKRALIQCAKDIAKASDEVTRLAKEVAKQCTDKRIRTNLLQVCERIPTISTQLKILSTVKATMLGRTNISDEESEQATEMLVHNAQNLMQSVKETVREAEAASIKIRTDAGFTLRWVRKTPWYQ
notes: human vinculin tail domain, residues 879-1,066 of vinculin (1,066-residue isoform), cloned in pGEX-4T-1; source: E. coli BL21-DE3, purified (GSTrap FF, Superdex 75)
The term stoichiometry N denotes a count of units in the complex or per binding partner. Turning to B1, the “stoichiometry N” value in series [1] worked out at 2. The binding result in series [2] was “binds”.

The record behind these values is publication PMC2873289, “A Helix Replacement Mechanism Directs Metavinculin Functions” (PLoS ONE, 2010).
